Assay results from the supplement of paper PMC5998384.

Legend:
[1] = system: HeLa Kyoto; experiment: melting temperature (median over replicates), in situ; higher = more thermally stable
[2] = system: HeLa Kyoto; experiment: thermal stability score vs G1/S (z-score of summed log2 fold changes over temperatures); higher = more thermally stable than in G1/S
[3] = system: HeLa Kyoto; experiment: solubility in G1/S (NP-40 vs SDS abundance) (log2 ratio); higher = more soluble; settings: cell cycle stage: G1/S
[4] = system: HeLa Kyoto; experiment: solubility change mitosis vs G1/S (difference of NP-40 vs SDS log2 ratios) (log2 ratio difference); higher = more soluble in mitosis
[5] = cell cycle stage: early G1 (4.5 h after nocodazole release)
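For melting temperature (median over replicates), in situ in this document: HeLa Kyoto cells synchronized by double thymidine or nocodazole block, proteins quantified by TMT10plex mass spectrometry, three independent biological replicates.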
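For solubility change mitosis vs G1/S (difference of NP-40 vs SDS log2 ratios) in this document: synchronized HeLa Kyoto cells (double thymidine block for G1/S, nocodazole release for mitosis), protein amounts in NP-40 versus SDS lysates quantified by mass spectrometry, three biological replicates.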
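For solubility in G1/S (NP-40 vs SDS abundance) in this document: HeLa Kyoto cells arrested at G1/S by double thymidine block, proteins quantified by TMT10plex mass spectrometry in mild NP-40 versus SDS extracts, three biological replicates.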
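For thermal stability score vs G1/S (z-score of summed log2 fold changes over temperatures) in this document: synchronized HeLa Kyoto cells, proteins quantified by TMT10plex mass spectrometry, three biological replicates, mitosis taken 0.5 h after nocodazole release, G1/S directly after double thymidine block.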

Row | Substance | melting temperature ([1]; cell cycle stage: G1/S) | melting temperature ([1]; cell cycle stage: mitosis) | thermal stability score [2, 5] | thermal stability score ([2]; cell cycle stage: mitosis) | solubility in G1/S (log2) [3] | solubility change mitosis (log2) [4]
1 | MNREDRNVLRMKERERRNQEIQQGEDAFPPSSPLFAEPYKVTSKEDKLSSRIQSMLGNYDEMKDFIGDRSIPKLVAIPKPTVPPSADEKSNPNFFEQRHGGSHQSSKWTPVGPAPSTSQSQKRSSGLQSGHSSQRTSAGSSSGTNSSGQRHDRESYNNSGSSSRKKGQHGSEHSKSRSSSPGKPQAVSSLNSSHSRSHGNDHHSKEHQRSKSPRDPDANWDSPSRVPFSSGQHSTQSFPPSLMSKSNSMLQKPTAYVRPMDGQESMEPKLSSEHYSSQSHGNSMTELKPSSKAHLTKLKIPSQPLDASASGDVSCVDEILKEMTHSWPPPLTAIHTPCKTEPSKFPFPTKESQQSNFGTGEQKRYNPSKTSNGHQSKSMLKDDLKLSSSEDSDGEQDCDKTMPRSTPGSNSEPSHHNSEGADNSRDDSSSHSGSESSSGSDSESESSSSDSEANEPSQSASPEPEPPPTNKWQLDNWLNKVNPHKVSPASSVDSNIPSSQGYKKEGREQGTGNSYTDTSGPKETSSATPGRDSKTIQKGSESGRGRQKSPAQSDSTTQRRTVGKKQPKKAEKAAAEEPRGGLKIESETPVDLASSMPSSRHKAATKGSRKPNIKKESKSSPRPTAEKKKYKSTSKSSQKSREIIETDTSSSDSDESESLPPSSQTPKYPESNRTPVKPSSVEEEDSFFRQRMFSPMEEKELLSPLSEPDDRYPLIVKIDLNLLTRIPGKPYKETEPPKGEKKNVPEKHTREAQKQASEKVSNKGKRKHKNEDDNRASESKKPKTEDKNSAGHKPSSNRESSKQSAAKEKDLLPSPAGPVPSKDPKTEHGSRKRTISQSSSLKSSSNSNKETSGSSKNSSSTSKQKKTEGKTSSSSKEVKEKAPSSSSNCPPSAPTLDSSKPRRTKLVFDDRNYSADHYLQEAKKLKHNADALSDRFEKAVYYLDAVVSFIECGNALEKNAQESKSPFPMYSETVDLIKYTMKLKNYLAPDATAADKRLTVLCLRCESLLYLRLFKLKKENALKYSKTLTEHLKNSYNNSQAPSPGLGSKAVGMPSPVSPKLSPGNSGNYSSGASSASASGSSVTIPQKIHQMAASYVQVTSNFLYATEIWDQAEQLSKEQKEFFAELDKVMGPLIFNASIMTDLVRYTRQGLHWLRQDAKLIS [AFF4] | 48.6 °C | 51 °C | 0.474 | 1.75 | 0.00478 | 0.309
2 | MSSTSPNLQKAIDLASKAAQEDKAGNYEEALQLYQHAVQYFLHVVKYEAQGDKAKQSIRAKCTEYLDRAEKLKEYLKNKEKKAQKPVKEGQPSPADEKGNDSDGEGESDDPEKKKLQNQLQGAIVIERPNVKWSDVAGLEGAKEALKEAVILPIKFPHLFTGKRTPWRGILLFGPPGTGKSYLAKAVATEANNSTFFSISSSDLVSKWLGESEKLVKNLFQLARENKPSIIFIDEIDSLCGSRSENESEAARRIKTEFLVQMQGVGVDNDGILVLGATNIPWVLDSAIRRRFEKRIYIPLPEPHARAAMFKLHLGTTQNSLTEADFRELGRKTDGYSGADISIIVRDALMQPVRKVQSATHFKKVRGPSRADPNHLVDDLLTPCSPGDPGAIEMTWMDVPGDKLLEPVVSMSDMLRSLSNTKPTVNEHDLLKLKKFTEDFGQEG [VPS4B] | 50.5 °C | 50.2 °C | 0.98 | 1.43 | 0.414 | -0.125
3 | MKLGRAVLGLLLLAPSVVQAVEPISLGLALAGVLTGYIYPRLYCLFAECCGQKRSLSREALQKDLDDNLFGQHLAKKIILNAVFGFINNPKPKKPLTLSLHGWTGTGKNFVSKIIAENIYEGGLNSDYVHLFVATLHFPHASNITLYKDQLQLWIRGNVSACARSIFIFDEMDKMHAGLIDAIKPFLDYYDLVDGVSYQKAMFIFLSNAGAERITDVALDFWRSGKQREDIKLKDIEHALSVSVFNNKNSGFWHSSLIDRNLIDYFVPFLPLEYKHLKMCIRVEMQSRGYEIDEDIVSRVAEEMTFFPKEERVFSDKGCKTVFTKLDYYYDD [TOR1A] | 53.7 °C | 53.5 °C | 3.37 | 4.06 | 0.000474 | -0.0946
4 | ITPR2 | 49.6 °C | 50.4 °C | -0.335 | 0.355 | -0.52 | 0.131
5 | MRALRAGLTLASGAGLGAVVEGWRRRREDARAAPGLLGRLPVLPVAAAAELPPVPGGPRGPGELAKYGLPGLAQLKSRESYVLCYDPRTRGALWVVEQLRPERLRGDGDRRECDFREDDSVHAYHRATNADYRGSGFDRGHLAAAANHRWSQKAMDDTFYLSNVAPQVPHLNQNAWNNLEKYSRSLTRSYQNVYVCTGPLFLPRTEADGKSYVKYQVIGKNHVAVPTHFFKVLILEAAGGQIELRTYVMPNAPVDEAIPLERFLVPIESIERASGLLFVPNILARAGSLKAITAGSK [ENDOG] | 51.8 °C | – | 1.54 | 0.994 | 0.34 | 0.0884
6 | MTEADVNPKAYPLADAHLTKKLLDLVQQSCNYKQLRKGANEATKTLNRGISEFIVMAADAEPLEIILHLPLLCEDKNVPYVFVRSKQALGRACGVSRPVIACSVTIKEGSQLKQQIQSIQQSIERLLV [SNU13] | 54.6 °C | 53 °C | -3.84 | -7.97 | -0.625 | 1.04
7 | MAFRQALQLAACGLAGGSAAVLFSAVAVGKPRAGGDAEPRPAEPPAWAGGARPGPGVWDPNWDRREPLSLINVRKRNVESGEEELASKLDHYKAKATRHIFLIRHSQYHVDGSLEKDRTLTPLGREQAELTGLRLASLGLKFNKIVHSSMTRAIETTDIISRHLPGVCKVSTDLLREGAPIEPDPPVSHWKPEAVQYYEDGARIEAAFRNYIHRADARQEEDSYEIFICHANVIRYIVCRALQFPPEGWLRLSLNNGSITHLVIRPNGRVALRTLGDTGFMPPDKITRS [PGAM5] | 52.8 °C | 52.2 °C | 1.94 | -3.72 | -0.0731 | 0.121
8 | MSRGGSYPHLLWDVRKRSLGLEDPSRLRSRYLGRREFIQRLKLEATLNVHDGCVNTICWNDTGEYILSGSDDTKLVISNPYSRKVLTTIRSGHRANIFSAKFLPCTNDKQIVSCSGDGVIFYTNVEQDAETNRQCQFTCHYGTTYEIMTVPNDPYTFLSCGEDGTVRWFDTRIKTSCTKEDCKDDILINCRRAATSVAICPPIPYYLAVGCSDSSVRIYDRRMLGTRATGNYAGRGTTGMVARFIPSHLNNKSCRVTSLCYSEDGQEILVSYSSDYIYLFDPKDDTARELKTPSAEERREELRQPPVKRLRLRGDWSDTGPRARPESERERDGEQSPNVSLMQRMSDMLSRWFEEASEVAQSNRGRGRSRPRGGTSQSDISTLPTVPSSPDLEVSETAMEVDTPAEQFLQPSTSSTMSAQAHSTSSPTESPHSTPLLSSPDSEQRQSVEASGHHTHHQSDNNNEKLSPKPGTGEPVLSLHYSTEGTTTSTIKLNFTDEWSSIASSSRGIGSHCKSEGQEESFVPQSSVQPPEGDSETKAPEESSEDVTKYQEGVSAENPVENHINITQSDKFTAKPLDSNSGERNDLNLDRSCGVPEESASSEKAKEPETSDQTSTESATNENNTNPEPQFQTEATGPSAHEETSTRDSALQDTDDSDDDPVLIPGARYRAGPGDRRSAVARIQEFFRRRKERKEMEELDTLNIRRPLVKMVYKGHRNSRTMIKEANFWGANFVMSGSDCGHIFIWDRHTAEHLMLLEADNHVVNCLQPHPFDPILASSGIDYDIKIWSPLEESRIFNRKLADEVITRNELMLEETRNTITVPASFMLRMLASLNHIRADRLEGDRSEGSGQENENEDEE [DCAF6] | 54.7 °C | 54.9 °C | -1.47 | -2.02 | -0.176 | 0.0043
9 | MGEIKVSPDYNWFRGTVPLKKIIVDDDDSKIWSLYDAGPRSIRCPLIFLPPVSGTADVFFRQILALTGWGYRVIALQYPVYWDHLEFCDGFRKLLDHLQLDKVHLFGASLGGFLAQKFAEYTHKSPRVHSLILCNSFSDTSIFNQTWTANSFWLMPAFMLKKIVLGNFSSGPVDPMMADAIDFMVDRLESLGQSELASRLTLNCQNSYVEPHKIRDIPVTIMDVFDQSALSTEAKEEMYKLYPNARRAHLKTGGNFPYLCRSAEVNLYVQIHLLQFHGTKYAAIDPSMVSAEELEVQKGSLGISQEEQ [SPG21] | 49.5 °C | 49 °C | 0.11 | 0.524 | 0.00691 | -0.157
10 | MLTRVKSAVANFMGGIMAGSSGSEHGGGSCGGSDLPLRFPYGRPEFLGLSQDEVECSADHIARPILILKETRRLPWATGYAEVINAGKSTHNEDQASCEVLTVKKKAGAVTSTPNRNSSKRRSSLPNGEGLQLKENSESEGVSCHYWSLFDGHAGSGAAVVASRLLQHHITEQLQDIVDILKNSAVLPPTCLGEEPENTPANSRTLTRAASLRGGVGAPGSPSTPPTRFFTEKKIPHECLVIGALESAFKEMDLQIERERSSYNISGGCTALIVICLLGKLYVANAGDSRAIIIRNGEIIPMSSEFTPETERQRLQYLAFMQPHLLGNEFTHLEFPRRVQRKELGKKMLYRDFNMTGWAYKTIEDEDLKFPLIYGEGKKARVMATIGVTRGLGDHDLKVHDSNIYIKPFLSSAPEVRIYDLSKYDHGSDDVLILATDGLWDVLSNEEVAEAITQFLPNCDPDDPHRYTLAAQDLVMRARGVLKDRGWRISNDRLGSGDDISVYVIPLIHGNKLS [PPM1H] | 55.9 °C | 56.9 °C | -2.63 | -1.3 | 0.29 | 0.221
11 | MEPAMEPETLEARINRATNPLNKELDWASINGFCEQLNEDFEGPPLATRLLAHKIQSPQEWEAIQALTVLETCMKSCGKRFHDEVGKFRFLNELIKVVSPKYLGSRTSEKVKNKILELLYSWTVGLPEEVKIAEAYQMLKKQGIVKSDPKLPDDTTFPLPPPRPKNVIFEDEEKSKMLARLLKSSHPEDLRAANKLIKEMVQEDQKRMEKISKRVNAIEEVNNNVKLLTEMVMSHSQGGAAAGSSEDLMKELYQRCERMRPTLFRLASDTEDNDEALAEILQANDNLTQVINLYKQLVRGEEVNGDATAGSIPGSTSALLDLSGLDLPPAGTTYPAMPTRPGEQASPEQPSASVSLLDDELMSLGLSDPTPPSGPSLDGTGWNSFQSSDATEPPAPALAQAPSMESRPPAQTSLPASSGLDDLDLLGKTLLQQSLPPESQQVRWEKQQPTPRLTLRDLQNKSSSCSSPSSSATSLLHTVSPEPPRPPQQPVPTELSLASITVPLESIKPSNILPVTVYDQHGFRILFHFARDPLPGRSDVLVVVVSMLSTAPQPIRNIVFQSAVPKVMKVKLQPPSGTELPAFNPIVHPSAITQVLLLANPQKEKVRLRYKLTFTMGDQTYNEMGDVDQFPPPETWGSL [GGA1] | 51.6 °C | 51.6 °C | -0.271 | -0.0298 | 0.556 | -0.28
12 | MAEGSAVSDPQHAARLLRALSSFREESRFCDAHLVLDGEEIPVQKNILAAASPYIRTKLNYNPPKDDGSTYKIELEGISVMVMREILDYIFSGQIRLNEDTIQDVVQAADLLLLTDLKTLCCEFLEGCIAAENCIGIRDFALHYCLHHVHYLATEYLETHFRDVSSTEEFLELSPQKLKEVISLEKLNVGNERYVFEAVIRWIAHDTEIRKVHMKDVMSALWVSGLDSSYLREQMLNEPLVREIVKECSNIPLSQPQQGEAMLANFKPRGYSECIVTVGGEERVSRKPTAAMRCMCPLYDPNRQLWIELAPLSMPRINHGVLSAEGFLFVFGGQDENKQTLSSGEKYDPDANTWTALPPMNEARHNFGIVEIDGMLYILGGEDGEKELISMECYDIYSKTWTKQPDLTMVRKIGCYAAMKKKIYAMGGGSYGKLFESVECYDPRTQQWTAICPLKERRFGAVACGVAMELYVFGGVRSREDAQGSEMVTCKSEFYHDEFKRWIYLNDQNLCIPASSSFVYGAVPIGASIYVIGDLDTGTNYDYVREFKRSTGTWHHTKPLLPSDLRRTGCAALRIANCKLFRLQLQQGLFRIRVHSP [GAN] | 51.6 °C | 48.7 °C | -0.83 | -2.48 | -0.0081 | -0.271
13 | ARHGAP21 | 47.6 °C | 50.2 °C | 0.0615 | 0.748 | -0.453 | 0.156
